Literature values in article PMC3218432.

Molecular target: Asp85 (UniProt position 98, WARYADWLFTT)

In the case of “Bacteriorhodopsin (Halobacterium salinarum (not stated in the article; described as archaeal))”, the pKa is given as 2.3.
